Source: patent US20180044415A1 (AbbVie / Abbott, published 2018)

Molecular target: T1, human DLL3 (immobilized human DLL3 or h293-hDLL3 cells) (human, UniProt Q9NYJ7 27-492, limits assumed)
T1 construct: the sentence says 'immobilized human DLL3 or h293-hDLL3 cells'
T1 sequence: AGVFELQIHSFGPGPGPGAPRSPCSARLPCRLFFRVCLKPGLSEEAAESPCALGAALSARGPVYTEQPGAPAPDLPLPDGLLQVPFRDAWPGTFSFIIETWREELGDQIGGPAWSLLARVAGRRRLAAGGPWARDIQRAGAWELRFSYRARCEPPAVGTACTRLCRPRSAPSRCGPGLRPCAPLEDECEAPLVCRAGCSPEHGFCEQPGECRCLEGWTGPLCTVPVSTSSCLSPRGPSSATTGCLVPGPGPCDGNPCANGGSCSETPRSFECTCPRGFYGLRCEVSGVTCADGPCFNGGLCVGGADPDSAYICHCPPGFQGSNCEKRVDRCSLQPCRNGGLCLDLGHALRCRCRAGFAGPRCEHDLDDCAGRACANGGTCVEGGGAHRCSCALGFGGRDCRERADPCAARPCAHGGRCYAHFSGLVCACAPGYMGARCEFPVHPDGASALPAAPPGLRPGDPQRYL
Assay: hybridoma screening on immobilized human DLL3 or on h293-hDLL3 cells

B1: SC16.30 (antibody, V domains shown)
VH: QVTLKESGPGILQPSQTLSLTCSFSGFSLSTSGMGVGWIRQPSGKGLEWLAHIWWDDVKRYKPALKSRLTVSKDTSSNQVFLKIATVDAADTGTYYCARIVDGHPPFAYWGQGTLVTVSA
VL: QIVLTQSPTIMSASLGERVTMTCTASSSVTSSYLHWYQQKPGSSPKLWIYSTSNLASGVPARFSGSGSGTSYSLTISSMEAEDAATYYCHQFHRSPFTFGSGTKLEIK
notes: murine mAb; variable regions only
binding result: binds

B2: SC16.35 (antibody, V domains shown)
VH: DVQLQESGPGLVKPSQSLSLTCTVTGYSITSDYAWNWIRQFPGNKLEWMGYISYSGSTSYNPSLKSRISITRDTSKNQFFLQLNSVTTEDTATYYCARFYYGSSYAMDYWGQGTSVTVSS
VL: DIQMTQTTSSLSASLGDRVTISCRASQDISNYLNWYQQKPDGTVKLLIYYTSRLHSGVPSRFSGSGSGTDYSLTISNLEQEDIATYFCQQGNTLPYTFGGGTKLEIK
notes: as for B1
binding result: binds

B3: SC16.38 (antibody, V domains shown)
VH: EVQLQQSGAELVKPGASVKLSCTVSGFNIKDTYIHWVKQRPEQGLEWIGRIDPANGNTKYDPKFQGKATITADTSSNTAYLQLSSLTSEDTAVYYCARPTGYFEYWGQGTTLTVSS
VL: QIVLTQSPAIMSASPGEKVTMTCSASSSINYMHWYQQKPGTSPKRWIYDTSKLASGVPARFSGSGSGTSYSLTISSMEAEDAATYYCHQRSTWTFGGGTKLEIK
notes: as for B1
binding result: binds

B4: SC16.42 (antibody, V domains shown)
VH: QIQLVQSGPELKKPGETVKISCKASGYTFTTAGMQWVQKMPGKGFKWIGWINTHSGEPKYADDFKGRFAFSLETSASTAYLQISNLKDEDTATFFCAPLWSDSSFAYWGQGTLVTVSA
VL: DVLMTQSPLSLSVSLGDQASISCRSSQNIVHSDRYTYLEWYLQKPGQSPKLLIYGVSNRFSGVPDRFSGSGSGTDFTLKISRVEAEDMGVYYCFQGTHVPYTFGGGTKLEIK
notes: as for B1
binding result: binds

B5: SC16.45 (antibody, V domains shown)
VH: QVQLQQSGADLVRPGTSVKVSCKASGYSFTNYLIEWVKQRPGQGLEWIGVINPGSGGTHYNEKFKDKAVLTADKSSTTAHMQLSSLTSDDSAVYFCARSPYDYNDGAMDYWGQGTSVTVSS
VL: EIQMTQSPSSMSASLGDRITITCQATQDIVKNLNWYQQKPGKPPSFLIYYATELAEGVPARFSGSGSGSDYSLTISNLESEDFADYHCLQFYEFPFTFGAGTKLELK
notes: as for B1
binding result: binds

B6: SC16.47 (antibody, V domains shown)
VH: EVQLQQSGPELVKPGASVKISCKASGYSFSRFYMHWVKQSPENSLEWIGEINPSTGGTSYNQKFKGKATLTVDKSSSTAYMQLKSLTSEESAVYYCTRGYGSNCYFDVWGAGTTVTVST
VL: DVVLTQSPLSLPVNIGDQASISCKSTKSLLNSDGFTYLDWYLQRPGQSPQFLIYLVSNRFSGVPDRFSGSGSGTDFTLKISRVEAEDLGVYYCFQSNYLPLTFGAGTKLELR
notes: as for B1
binding result: binds

B7: SC16.49 (antibody, V domains shown)
VH: QVQLQQSGPELVKPGTLVKISCKASGYTFTSYDINWVKQRPGQGLEWIGWIYPGDGNTKYSEKFKGKATLTADKSSSTAYMQLTSLTSENSAVYFCARDYDYPFAYWGQGTLVTVSA
VL: DIKMTQSPSSMYASLGERVTITCKASQDINSYLSWFQQKPGKSPKTLIYRANRLVDGVPSRFSGSGSGQDYSLTITSLEYEDMGIYYCLQYDEFPLTFGAGTKLELK
notes: as for B1
binding result: binds

B8: SC16.52 (antibody, V domains shown)
VH: QVQLKESGPGLVAPSQSLSITCAVSGFSLTSFAIHWFRKPPGKGLEWLGVIWTGGTTNYNSALMSRLSISKDNSKSQVFLKMNSLQTDDTAMYYCARDDYDNNYAMDYWGQGTSVTVSS
VL: DIQMIQSPSSMFASLGDRVSLSCRASQGIRGTLDWYQQKPNGTIKLLIYSTSNLNSGVPSRFSGSGSGSDYSLTISSLESEDFADYYCLQRNAYPLTFGAGTKLELK
notes: as for B1
binding result: binds

B9: SC16.55 (antibody, V domains shown)
VH: EVQLVESGGGLVQPKGSLKLSCAVSAFTFTTYAMNWVRQAPGKGLEWVARIRNKSNNYATYYADSVKDRFTISRDDSQSMLYLQMNNLKIEDTAMYYCVFYYDYVYWGQGTLVTVSA
VL: DIKMTQSPSSMYASLGERVTITCKASQDINSYLNWFQQKPGKSPKTLIYRANRLVDGVPSRFSGSGSGQDYSLTISSLEYEDMGIYYCLQYDEFPYTFGGGTKLEIK
notes: as for B1
binding result: binds

B10: SC16.57 (antibody, V domains shown)
VH: EVKLVESGGDLVKPGGSLKLSCAASGFAFSSYDMSWVRQTPEKRLEWVATISSGGSYTYYPDSVKGRFTISRDNVRDTLYLQMSSLRSEDTALYYCARQAIGTYFDYWGQGTTLTVSS
VL: DIVMTQSHKFMSISVGDRVSITCKASQDVSIFVAWYQQKPGQSPKLLIYSASYRYTGVPDRFTGSGSGTDFIFTISSVQAEDLAVYYCQQHYGTPFTFGSGTKLKIR
notes: as for B1
binding result: binds

B11: SC16.58 (antibody, V domains shown)
VH: DVQLVESGGGLVQPGGSRKLSCAASGFTFSSFGMHWVRQAPEKGLEWVAYISSGSSNIYYADTVKGRFTISRDNPKNTLFLQMTSLRSEDTAMYYCARGYYGNYDAMDYWGQGTSVTVSS
VL: DIQMTQSPASLSSSVGETVTITCRASENIYSYLAWYQQKQGKSPQLLVYNAKTLAEGVPSRFSGSGSGTQFSLKINSLQPEDFGTYYCQHHYDSPLTFGAGTKLELR
notes: as for B1
binding result: binds

B12: SC16.61 (antibody, V domains shown)
VH: EVLLQRSGPDLVKPGASVTIPCKASGYTFTDYNMDWVKQSHGKSLEWIGNINTYNGGTIYNQKFKGKATLTVDKPSSTAYMELRSLTSEDTAVYYCARRLRYGGHYFDYWGQGTALTVSS
VL: DIVMTQSTSSLAMSVGQKVTMSCKSSQSLLNSSNQKNYLAWYQQEPGQSPKLLVSFASTRESGVPDRFTGSGSGTDFTLTISGVQAEDLAVYYCQQHYSIPLTFGAGTKLELK
notes: as for B1
binding result: binds

B13: SC16.62 (antibody, V domains shown)
VH: EVMLVESGGDLVKPGGSLKLSCAASGFTFSSYAMSWVRQTPEKRLEWVAYISGGGDHIYYPDSVRGRFTISRDNAKDTLYLQMSSLRSEDTALYDCARVRDWYFDVWGAGTTVTVSS
VL: DIKMTQSPSSMYASLGERVTITCKASQDINSFLSWFQRKPGKSPKTLIYRANRLVDGVPSRFTGSGSGQEFSLTISSLEYEDLGIYYCLQYDEFPYTFGGGTKLEIK
notes: as for B1
binding result: binds

B14: SC16.63 (antibody, V domains shown)
VH: QVQLQQSGTELLRPGASVKISCKATGYTFSSYWMEWVKQRPGHGLEWIGEILPGSGTTQYNEKFKGKATFTADTSSNTAYMHLSSLTSEDSAVYYCARGTNSLWGQGTLVTVSA
VL: QIVLTQSPAIMSASPGEKVTMTCSASSSVSYMYWYQQKSGTSPKRWIYDTSKLASGVPARFSGSGSGTSYSLTISSMEAEDAATYYCQQWSSNPYTFGGGTKLEIK
notes: as for B1
binding result: binds

B15: SC16.65 (antibody, V domains shown)
VH: QVTLKESGPGILQPSQTLSLTCSFSGFSLSTSGMGVGWIRQPSGKGLEWLALIWWDDVKRYNPALKSRLTISKDASSSQVFLKIASVDTADTATYYCARIASYDYDVVYAMDYWGQGTSVSVSS
VL: QIVLTQSPALMSASPGEKVTMTCSVTSSVSYMYWYQQKPRSSPKPWIYLTSNLASGVPARFSGSGSGTSYSLTISSVEAEDAATYYCQQWRNNPFTFGSGTKVEIK
notes: as for B1
binding result: binds

B16: SC16.67 (antibody, V domains shown)
VH: EVQLVETGGGLVQPKGSLKLSCAVSAFTFTTYAMNWVRQAPGKGLEWVARIRNKSNNYATYYADSVKDRFTISRDDSQSMLYLQMNNLKIEDTAMYYCVFYYDYVYWGQGTLVTVSA
VL: QAVVTQESALTTSPGETVTLTCRSSTGAVTTSNYANWIQEKPDHLFTGLIGGTNNRAPGVPARFSGSLIGDKAALTITGAQTEDEAIYFCGLWYSNHLVFGGGTKLTVL
notes: as for B1
binding result: binds

B17: SC16.72 (antibody, V domains shown)
VH: EVQLQQSGPELVKPGASVKMSCKASGYTFTSYVMHWVKQKPGQGLEWIGYINPYNDGTKYNEKFKGKATLTSDKSSSTAYMELSSLTSEDSAVYYCARLRSRAMDYWGQGTSVTVSS
VL: ENVLTQSPAIMSASLGEKVTMSCRASSSVNYMSWYQQKSDASPKLWIYYTSNLAPGVPARFSGSGSGNSYSLTISSMEGEDAATYYCQQFTSSPYTFGGGTKLEIK
notes: as for B1
binding result: binds

B18: SC16.73 (antibody, V domains shown)
VH: QVQLQQSGAELMKPGASVKISCKANGYTFSSYWIEWLRQRPGHGLEWIGEILPGSDNSNYNEKFKGKATFTADTSSNTAYMQLSSLTSEESAVYYCTRGLRRDGSYYYVMEHWGQGTSVTVSS
VL: DIQMTQSPSSLSASLGERVSLTCRASQDIGYSLNWLQQEPDGTIKRLIYATSSLDSGVPKRFSGSRSGSDYSLTISSLESEDFVDYYCLQYASSPWTFGGGTKLEIK
notes: as for B1
binding result: binds

B19: SC16.78 (antibody, V domains shown)
VH: EVKLVESGGGLVKPGGSLKLSCAASGFTFGRYVMSWVRQTPEKKLEWVASITSGGTTYYPDSVKGRFTISRDNARNILYLQMSSLRSEDTAMYYCARVYYHYDDIFAYWGQGTLVTVSA
VL: DIKMTQSPSSMYASLGERVTITCKASQDINSYLSWFQQKPGRSPKTLIYRANRLVDGVPSRFSGSGSGQDYSLTISSLDYEDMGIYYCLQYDEFPFTFGSGTKLEIK
notes: as for B1
binding result: binds

B20: SC16.79 (antibody, V domains shown)
VH: EVQLQQSGPELVKPGASVKISCKTSGYTFTEYTMHWVKQSHGKSLEWIGGINPNNGGTSYNQKFKGKATLTVDKSSSTAYMELRSLTSEDSAVYYCARGPAWFAYWGQGTLVTVSA
VL: DIVMSQSPSSLAVSAGEKVTMSCKSSQSLLNSRTRKNYLAWYQQKPGQSPKLLIYWASTRESGVPDRFTGSGSGTDFTLTISSVQAEDLAVYYCKQSYNLYTFGGGTKLKIK
notes: as for B1
binding result: binds
